The target in the series is human transferrin receptor (hTfR, hTfR1) extracellular domain (Homo sapiens, UniProt P02786 89-760). The experiment in a line: SPR.
human transferrin receptor (hTfR, hTfR1) extracellular domain, sequence (P02786 89-760): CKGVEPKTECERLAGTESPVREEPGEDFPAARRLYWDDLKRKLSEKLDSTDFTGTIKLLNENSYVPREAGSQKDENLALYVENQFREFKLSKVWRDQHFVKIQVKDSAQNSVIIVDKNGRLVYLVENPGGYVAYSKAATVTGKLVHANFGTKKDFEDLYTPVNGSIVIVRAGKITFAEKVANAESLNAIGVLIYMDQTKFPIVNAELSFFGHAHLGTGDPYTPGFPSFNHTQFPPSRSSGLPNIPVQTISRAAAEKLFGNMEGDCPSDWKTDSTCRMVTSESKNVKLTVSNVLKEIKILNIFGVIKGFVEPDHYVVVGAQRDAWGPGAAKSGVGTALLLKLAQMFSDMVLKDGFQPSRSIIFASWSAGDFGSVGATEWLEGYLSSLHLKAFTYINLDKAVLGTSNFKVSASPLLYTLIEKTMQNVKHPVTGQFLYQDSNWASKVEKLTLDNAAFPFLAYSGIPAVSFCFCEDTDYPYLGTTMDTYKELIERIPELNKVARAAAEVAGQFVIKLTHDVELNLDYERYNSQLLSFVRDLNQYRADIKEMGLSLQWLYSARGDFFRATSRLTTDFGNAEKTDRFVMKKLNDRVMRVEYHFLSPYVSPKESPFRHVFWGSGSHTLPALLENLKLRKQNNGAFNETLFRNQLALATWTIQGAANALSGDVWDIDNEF

For the molecule AAUGCGUUCACGUUUAUUCACAUUUUUGAAUU (structured_RNA, 2'-F pyrimidines presumed, not restated for truncates) [TR14 ST1-2 (32 nt)], the binding result is “no binding”.
As for GCUCAAUGCGUUCACGUUUAUUCACAUUUUUGAAUUGAGC (structured_RNA, 2'-F pyrimidines presumed, not restated for truncates) [TR14 ST1-1 (40 nt)], the entry is “no binding”.
